Assay results taken from the domain aggregation screens of Martell et al. (2025).

Assay: soluble fraction after stress (log2 fold change); higher = more stays soluble; pooled small domains, quantitative proteomics
Conditions: stress: 75 degC
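Note: 20 min heating vs room temperature control held 20 min.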

Row | Sequence | soluble fraction (log2)
1 | HMSTMTEQEAFGLWERINDFIARTGNEPNRNSNDAHEVRMAEALNFIRIKVAEQRNSQSNSEAQNN | -0.263
2 | HMSTNDIFISGDKLVLKNTTGQMDVFDMAGRKVLSSTNNVSEMNVSSLPKGVYVVSASIGGSKMKAKVYK | 0.536
3 | HMSTQGRRIEILRHLTQTKKKADVNFVELGRTFGTSDTTIRKDLDWLIKNEYWENHGEWKPTQAGLNMI | 0.0518
4 | HMSTRKAFVNGDGVRLRSGPGTNHSIRASLTKGQTVFVTGTKDGWASVSVQGGASGWVSADLLKYE | 0.59
5 | HMSTRYVRTPAGQAEIQARVFKLSRPVRNLLLVINDSRSIDDWLVQVHGITADDVAMLRAEGLIAEVS | -3.06
6 | HMSTSEQVYTTDKVNVRREADTSSEKLGSLEKGTAISRTGTEGEWSVVNYGGVTGYIKTEFLTTEQPQ | 0.63
7 | HMSTSFQVQVSVLDLRIRKEPTVKGQEVGKISKGIHTITETRSADGYTWGKLESGQGWIALEFTTKLD | -3.72
8 | HMSTSLIEFTIDRNNSIANKMIMDANIPEDILVVMIKRNGDVFVPNGSTKILPGDILVLSGNKLKY | -1.69
9 | HMSTTDGIERFLASGAVKGIGRTMAARIVEHFGSRTLTVMESEPERLTEVAGIGRKKAESIAASYAELS | -0.247
10 | HMSTTYAPYLLGETEQEAIRMARNAGLDPQVVRQSDKSEAGTVILQSHDFGFAMKRGAVILITVSSGPLQ | -2.13
11 | HMSTVTEVHYIAFKNGRIVDIKAALTGSAVTATSIKEQPKIENYNYTTSEVRDGILYHTYAPVA | -2.37
12 | HMSVADNALSRQAIESRIALFIQNEDPNHPRSDADIQKELAQAGVVISRRAITKYRNHLHIPSASLRRR | -1.16
13 | HMSVAPISYSQFESYLEQGKVASVAVGQDTIAGRFTAPVDGKSQFVTTIVNPQILDRIDKSGVEITGV | 0.144
14 | HMSVAVKAPLQGTVMKVNVKPGDTVTKGAPVAVIEALKMENDVPAPQDGVVASVDVKSGDSVKTDQVLLTL | 0.563
15 | HMSVDAMDEANERKMAKTFNMIVLGGLLKIRPIVSIESVIKALRKTLPERHHHLIPMNEEAIHIGMDII | 0.0832
16 | HMSVDDEQLLKIIDDIFQQNPQAVTDAKTDSNAIHFLIGQVMKETKGHADHAISKEIIEKKLS | 0.0407
17 | HMSVDEVEALYLKIAEDRLEGKLPDKVSESDLMRRYGLTKAQLGAILQRIVHEGWIERTPGHGWRFLPIL | -0.538
18 | HMSVFMIIVLKQHAPQEFVDMLMSSIKAKGVQIDVSKGARKTILGLVGNTSVIDREQIAGYEYVDKVIRV | -1.94
19 | HMSVFTDIYHQADHETKLMLIHEIKIVGDEKEFRLLKSIIDSTSNDLSKEANDALNAIKIRLALSK | -2.34

Row | Sequence | soluble fraction (log2)
20 | HMSVFTPLTRSELETFLAPYELGRLLDFQGIAAGSENTNYFISLEKGEYVLTLVERGPVAEMPFFIELLD | -1.33
21 | HMSVGDLLENLIRETRAQFSAPPESLGVAEKRRFVALLSQKGGFLLKGAVSRAASVLGVSEQTVYRYLKDS | -1.83
22 | HMSVGDLPPEAREIWKLLDGRELSLDLLAEETGRETGALLSTLMMLEMKLLVEHGSDMVYRRIPRR | -2.85
23 | HMSVHSAELKKLKAHLLGIIGRELETQPSTENREEMVRQILHQSYESLRLNLPMQLKEELFNEILAEVL | -0.459
24 | HMSVLEHVSGNVRRLRLQAGLSQEALARAASVSRRMLVGIESGDVNVSLSTLDRIAAALGVLFPDLVQAP | -2.53
25 | HMSVLPAREQVAAILRQAILLRKFKEGQDLTLKDAAELVGSSITPVREAFQILENEGLIELRPNKGAVVL | -0.627
26 | HMSVPEDLYFRELEVEGNKVRISGIASTNNRVSALMRNFDQSEWFRDPSLIKVESKSPGVNEFEIVMTRI | 0.125
27 | HMSVPNVVGRDQVEASSLLESAGFKVSVKQSYSDSVEQGKVISQSPSGSTTVSPGSTVTITVSQ | 0.395
28 | HMSVPRPSAVEVTSLVTGVRDLLPHLGEGYVERVLVEFGFKVDETINALLEGNLPKHLQDLDPSLTKEI | -1.24
29 | HMSVPVDEVLAALTQKLTDLRTQAMAAKDFSAVDALKAALTEAGVEVRMSKTGVELIAGPRVDAKKLGTL | 0.395
30 | HMSVRPMVEILRVVGSPSPVWVTWARNRAAWLYETGIRPQQRLRMADGTEVLIRLVGEFAHILVVGG | 0.092
31 | HMSVSATQMDAFVRQLRARLSSADGLDDAARLVRQDLEPFLGRFSDETERDFAAAIEQVRGSIRPVEI | -0.139
32 | HMSVSEAELAEKYHADDLEALKSGKLHEFQENLIDRNGKKYTVQTMKDILTLSDGTRLLLGIGLD | 0.131
33 | HMSVTDDQLRVFTNKSGTKIKAKIVEVSDDKVKLIRDDNKKFIVPINSLSEEDQDYLRDWVSNEAVEP | -0.118
34 | HMSVTIDAGGKVYLQESEIADDQLVPRLVAISNNGYDKPIYLRADKTVGYGRVAEVMSLLNAAGFTKLVLV | -0.513
35 | HMSVTRELMLVKVKVTPEQRAGVSAIVDIFRANIIDVGKESMIIELTGNKSKLEAFIDLLDGYEILELART | -1.46
36 | HMSVTVPDVKRMQAEDAKALLSRYRLRSEVIDSVYVDNIPRGAVVEQIPRENSSVKENRIVFLTINSN | -0.569
37 | HMSVTYRYSYVYNGNTYSDGWSVRRAIENNENKRFGPEPSDLDHEAQKQARVTFWAEHGVEYKEQEVV | -1.24
38 | HMSVYIGVDQAKSIAAEHAGLSNSAVTFSKAKLENDDGMTVYEVEFFYQGTEYDYKIDASTGSILEYDLDR | -1.64
